Data on five molecules can be found in article PMC6212790, “How bacterial xenogeneic silencer rok distinguishes foreign from self DNA in its resident genome” (Nucleic Acids Research, 2018).

Data set [1] deals with T1, Rok-C102-185 (Bacillus subtilis subsp. subtilis str. …, UniProt O34857 102-185).
T1 sequence: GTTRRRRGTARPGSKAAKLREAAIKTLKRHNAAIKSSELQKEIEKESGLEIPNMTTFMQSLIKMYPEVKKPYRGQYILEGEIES
Description: NMR HSQC; ITC: sodium phosphate buffer, 200 mM NaCl, pH 6, 277 K, 50 uM protein in cell, 750 uM Seq1 DNA; NMR samples: 50 mM sodium phosphate, 50 mM NaCl, pH 6.0. Conditions: protein: recombinant, tags: C-terminal His6, blunt.

For the next data set, the target named is T2, Rok-C97-191 (Bacillus subtilis subsp. subtilis str. …, UniProt O34857 97-191).
T2 sequence: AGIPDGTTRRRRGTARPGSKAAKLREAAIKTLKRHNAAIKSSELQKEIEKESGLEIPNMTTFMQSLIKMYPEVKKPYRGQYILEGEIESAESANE
Description: NMR titration; ITC: sodium phosphate buffer, 200 mM NaCl, pH 6, 277 K, 50 uM protein in cell, 750 uM Seq1 DNA; NMR samples: 50 mM sodium phosphate, 50 mM NaCl, pH 6.0. The following applies: protein: recombinant; tags: C-terminal His6; blunt, self-complementary 12 bp.

Data set [2] deals with the molecule itself. Description: SEC; gel filtration on a GE HiLoad 16/600 Superdex 75 preparation grade column; elution volumes compared with cytochrome C (12.4 kD) and the void volume.
For data set [3], the target named is T3, Rok-C114-185 R174A (Bacillus subtilis subsp. subtilis str. …, UniProt O34857 114-185, R174A).
T3 sequence: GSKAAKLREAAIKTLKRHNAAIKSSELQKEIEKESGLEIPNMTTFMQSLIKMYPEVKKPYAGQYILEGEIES
Description: ITC; ITC: sodium phosphate buffer, 200 mM NaCl, pH 6, 277 K, 50 uM protein in cell, 750 uM Seq1 DNA; NMR samples: 50 mM sodium phosphate, 50 mM NaCl, pH 6.0. Conditions: protein: recombinant; tags: C-terminal His6; blunt, self-complementary 18 bp.

Data set [4] addresses T4, Rok-C114-185 T156A (Bacillus subtilis subsp. subtilis str. …, UniProt O34857 114-185, T156A).
T4 sequence: T3 sequence with T43A, A61R
The description is as above. Conditions: protein: recombinant; tags: C-terminal His6; blunt, self-complementary 18 bp.

Data set [5] addresses T3, Rok-C114-185 R174A. Description: ITC; ITC: sodium phosphate buffer, 200 mM NaCl, pH 6, 277 K, 50 uM protein in cell titrated with 750 uM Seq1 DNA; PBM: buffer not stated. Conditions: protein: recombinant; tags: C-terminal His6; blunt, self-complementary 18 bp. A general note: In ITC the heat of successive injections is recorded.
In data set [6] the target is T4, Rok-C114-185 T156A. The description is as above. Conditions: protein: recombinant; tags: C-terminal His6; blunt, self-complementary 18 bp.
A further data set addresses T5, Rok-C114-185 (Bacillus subtilis subsp. subtilis str. …, UniProt O34857 114-185).
T5 sequence: T3 sequence with A61R
The description is as above. The following applies: protein: recombinant; tags: C-terminal His6; blunt, self-complementary 18 bp.

Data set [7] has as its target T1, Rok-C102-185. The data set is described as above. The following applies: protein: recombinant; tags: C-terminal His6; blunt, self-complementary 18 bp.
The target in another data set is T6, Rok-C114-185 K171A (Bacillus subtilis subsp. subtilis str. …, UniProt O34857 114-185, K171A).
T6 sequence: T3 sequence with K58A, A61R
Described as above. The following applies: protein: recombinant; tags: C-terminal His6; blunt, self-complementary 18 bp.

For the next data set, the target named is T7, Rok-C114-185 K164A (Bacillus subtilis subsp. subtilis str. …, UniProt O34857 114-185, K164A).
T7 sequence: T3 sequence with K51A, A61R
Described as above. Conditions: protein: recombinant; tags: C-terminal His6; blunt, self-complementary 18 bp.

In a further data set the target is T8, Rok-C114-185 K136A (Bacillus subtilis subsp. subtilis str. …, UniProt O34857 114-185, K136A).
T8 sequence: T3 sequence with K23A, A61R
The data set is described as above. The following applies: protein: recombinant; tags: C-terminal His6; blunt, self-complementary 18 bp.

The target of the next data set is T9, Rok-C114-185 T157A (Bacillus subtilis subsp. subtilis str. …, UniProt O34857 114-185, T157A).
T9 sequence: T3 sequence with T44A, A61R
The description is as above. Conditions: protein: recombinant; tags: C-terminal His6; blunt, self-complementary 18 bp.

A further data set addresses T10, Rok-C114-185 K116A (Bacillus subtilis subsp. subtilis str. …, UniProt O34857 114-185, K116A).
T10 sequence: T3 sequence with K3A, A61R
The data set is described as above. The following applies: protein: recombinant; tags: C-terminal His6; blunt, self-complementary 18 bp.

Numbering of substitutions follows the chain as printed.

B1: 3AT (dsDNA)
DNA 1: CGCATATATGCG
DNA 2: CGCATATATGCG
With B1, the binding result with Rok-C102-185 [1] (self-complementary 12 bp) and with Rok-C97-191 was “binds” each time.

B2: Rok-N^1-95 (N-terminal domain of Rok, residues 1-95) (domain or fragment, B. subtilis subsp. subtilis str. 168, UniProt O34857 1-95, looked up)
chain: MFNEREALRLRLEQLNEAEVKVIREYQIERDKIYAKLRELDRNGSPSEIKKDFRSEKKPDSLPVLAELAAQEIRSYQPQSQQQSVQPQLQSISSL
notes: Rok of Bacillus subtilis subsp. subtilis str; cloned into pET-21a(+) NdeI/XhoI; source: E. coli Rosetta (DE3), purified (Ni-NTA, size exclusion chromatography)
Turning to B2, the binding result in [2] is “binds”.

B3: Seq1 (dsDNA)
DNA 1: CTAATAACTAGTTATTAG
DNA 2: CTAATAACTAGTTATTAG
The Kd is a measure of binding affinity in units of concentration. On to B3, for which the Kd was found to be 89 ± 42 µM with Rok-C114-185 R174A [3]; 42.9 ± 7.1 µM in the data set with Rok-C114-185 T156A [4]; 89 ± 42 µM with Rok-C114-185 R174A [5]; 42.9 ± 7.1 µM with Rok-C114-185 T156A [6]; 19.7 ± 2.7 µM with Rok-C114-185; 7.9 ± 1.3 µM with Rok-C102-185 [7]. Moreover, the Kd is 110 ± 35 µM in the data set with Rok-C114-185 K171A; 30.9 ± 2.9 µM with Rok-C114-185 K164A; 39.4 ± 6.4 µM with Rok-C114-185 K136A; 15 ± 1.9 µM in the data set with Rok-C114-185 T157A; 42.9 ± 8.1 µM with Rok-C114-185 K116A.

B4: Rok (full-length Rok protein, Bacillus subtilis subsp. subtilis str. 168) (natural protein, B. subtilis subsp. subtilis str. 168, UniProt O34857 1-191, looked up)
chain: MFNEREALRLRLEQLNEAEVKVIREYQIERDKIYAKLRELDRNGSPSEIKKDFRSEKKPDSLPVLAELAAQEIRSYQPQSQQQSVQPQLQSISSLPAGIPDGTTRRRRGTARPGSKAAKLREAAIKTLKRHNAAIKSSELQKEIEKESGLEIPNMTTFMQSLIKMYPEVKKPYRGQYILEGEIESAESANE
notes: Rok, xenogeneic silencer of Bacillus subtilis subsp. subtilis str; cloned into pET-21a(+) NdeI/XhoI; size of the higher order oligomer not determined; source: E. coli Rosetta (DE3), purified (Ni-NTA, size exclusion chromatography)
Take B4: in data set [2], the binding result was “binds”.

B5: 8AT (dsDNA)
DNA 1: CATATATATATATATATG
DNA 2: CATATATATATATATATG
In the case of B5, in the data set with Rok-C102-185 [1] (self-complementary 18 bp), the binding result was “binds”.
